Measurements as given in article PMC11960969, “Mdga2 deficiency leads to an aberrant activation of BDNF/TrkB signaling that underlies autism-relevant synaptic and behavioral changes in mice” (PLOS Biology, 2025).

B1: sp¦Q6A0D4¦RFTN1_MOUSE (protein, UniProt Q6A0D4 2-554, looked up)
Raftlin: GCSLNKLEKREEKRPGNIYSTLKRPQVETKVDVTYEYCFLEFTTLTAAELPRSSATRLASLRDLPDQLLELYQQGFSLAALHPFVQPTRRQEKILLEHIFRAILVKKTNRSQKAELHDEGYTLELDYCSSLEHLADQKLIPEFIKKVQEAASQGLKFVSVVPQYQPSVSSAGSRRLKPVANSVEDARDVKCTLGDRSSLENDTPKAAETDAATAGVNRRPETKPGSTGDVPSAQQPGIPSPSAENEAGEFPLRGLQPALDRSEGDPSNGPEELPSRKMEIFAFFNRPKSQQKCRQYYPVTIPLQVSKNGQTVSSLDASWLEHMSDHFRKGGVLVNAVFQLGMANDSFYGLTDGVFIFEAVSTEDNRTTQGYDAIVVEQWTVLEGTEVQTDYMPLLNSLAAYGWQLTCVLPTPILKTTREGNVSTKQIVFLQRPCLPQKTKKRESKFQWRFSRNEIHGRQTRKSKGKLSASNKQQAEENEKNLEDQFSKAGDVGNCVLGAPQWGRASEVREQRQGSAAVQNGPAGHNRDSVALRHSNPRAEAELAAGPTPTEAN
B2: sp¦P48381¦RFX3_MOUSE (protein, UniProt P48381 1-749, looked up)
Transcription factor RFX3: MQTSETGSDTGSTVTLQTSVASQAAVPTQVVQQVPVQQQVQQVQTVQQVQHVYPAQVQYVEGSDTVYTNGAIRTTTYPYTETQMYSQNTGGNYFDTQGSSAQVTTVVSSHSMVGTGGIQMGVTGGQLISSSGGTYLIGNSMENSGHSVTHTTRASPATIEMAIETLQKSDGLSTHRSSLLNSHLQWLLDNYETAEGVSLPRSTLYNHYLRHCQEHKLDPVNAASFGKLIRSIFMGLRTRRLGTRGNSKYHYYGIRVKPDSPLNRLQEDMQYMAMRQQPMQQKQRYKPMQKVDGVADGFTGSGQQTGTSVEQTVIAQSQHHQQFLDASRALPEFGEVEISSLPDGTTFEDIKSLQSLYREHCEAILDVVVNLQFSLIEKLWQTFWRYSPSTPADGTTITESSNLSEIESRLPKAKLITLCKHESILKWMCNCDHGMYQALVEILIPDVLRPIPSALTQAIRNFAKSLEGWLSNAMNNIPQRMIQTKVAAVSAFAQTLRRYTSLNHLAQAARAVLQNTSQINQMLSDLNRVDFANVQEQASWVCQCDDNMVQRLETDFKMTLQQQSTLEQWAAWLDNVMMQALKPYEGRPSFPKAARQFLLKWSFYSSMVIRDLTLRSAASFGSFHLIRLLYDEYMFYLVEHRVAQVTGETPIAVMGEFGDLNAVSPGNLDKDEGSEVESETDEDLDDSSEPRAKREKTELSQAFPVGCMQPVLESAVQPSLLNPLHSEHIVTSTQTIRQCSATGNTYTAV
B3: sp¦P43135¦COT2_MOUSE (protein, UniProt P43135 1-414, looked up)
COUP transcription factor 2: MAMVVSTWRDPQDEVPGSQGSQASQAPPVPGPPPGAPHTPQTPGQGGPASTPAQTAAGGQGGPGGPGSDKQQQQQHIECVVCGDKSSGKHYGQFTCEGCKSFFKRSVRRNLSYTCRANRNCPIDQHHRNQCQYCRLKKCLKVGMRREAVQRGRMPPTQPTHGQFALTNGDPLNCHSYLSGYISLLLRAEPYPTSRFGSQCMQPNNIMGIENICELAARMLFSAVEWARNIPFFPDLQITDQVALLRLTWSELFVLNAAQCSMPLHVAPLLAAAGLHASPMSADRVVAFMDHIRIFQEQVEKLKALHVDSAEYSCLKAIVLFTSDACGLSDVAHVESLQEKSQCALEEYVRSQYPNQPTRFGKLLLRLPSLRTVSSSVIEQLFFVRLVGKTPIETLIRDMLLSGSSFNWPYMAIQ
B4: sp¦Q8BZ60¦STON2_MOUSE (protein, UniProt Q8BZ60 1-895, looked up)
Stonin-2: MTTLDHVIATHQSEWVSFSEEPLFPTPLEGGTEEHFPGLSSSSERSESSSGENHVVDEGSQDLSHSEQDDSSEKMGLISEAASPPGSPVQPTPDLASAISNWVQFEDDTPWSSTSPPHKETALTLTMPCWTCPSFDSLRRCPLTSESSWTTHSEDTSSPSVAPSYTDLQLINTEEQASGRASGTDSTDNSSSLQEDEEVEMEAISWWAGSPAMNGHPAAPPVTTARFPSWVTFEDNEVGCPSPPVPSPKKPNTPSAATAAPDVPFNSTGSFKRDRPKSTLMNLPKVQKLDISSLNRPPSVIEAPPWRATNPFLNETLQDVQPSPINPFSAFFEEQERRSQNSSVSSTTGKSQRDSLIVVYQDAISFDDSGKSQPHPDAIEKLKQLQIDDPDPVGNTALPDDDPTASVELDAPSPASALSQPRDGWPMMLRIPEKKNIMSSRHWGPIYIKLTASGYLQLYYEQGLEKPFREFKLEICHEVSEPRLQNYDENGRIHSLRIDRVTYKEKKKYQPKPAVAHAAEREQVIKLGTTNYDDFRSFIHAVQDRLMDLPVLSMDLSTVGLNYLEEEITVDVRDEFSGTVGKGDNQILQHHVLTRIHILSFLSGLAECRLGLNDILIKGNEIVSRQDIMPTTTTKWIKLHECRFHGCVDEDVFNSSRVILFNPLDACRFELMRFRTVFAEKTLPFTLRTAASINGAEVEVQSWLRMSPGFSSNRDPLTQVPCENVMVRYPVPSEWVKNFRRDSVLGEKSLKAKVNRGASFGSAGASGSEPVMRVTLGTAKYEHAFNSIVWRINRLPDKNSASGHPHCFFCHLELGSDREVPSRFANYVNVEFSMPTTSASKAAVRSVSVEDKPDVRKWVNYSAHYSYKVEIEQKKSLKPDFEGEDLENPKECGVQ
B5: sp¦Q8C5W0¦CLMN_MOUSE (protein, UniProt Q8C5W0 1-1052, looked up)
Calmin: MAAQEWDWFQREELIGQISDIRVQNLQVERENVQKRTFTRWINLHLEKCDPPLEVTDLFVDIQDGKILMALLEVLSGRNLLHEYKSSSHRIFRLNNIAKALKFLEDSNVKLVSIDAAEIADGNPSLVLGLIWNIILFFQIKELTGNLSRSSPSSSLSPGSGGTDSDSSYPPTPTTERSVAVAVKDQRKAIKTLLSWVQRKTRKYGVAVQDFAGSWRSGLAFLAVIKAIDPSLVDMKQALEDSTRDNLEKAFSIAHDSLHIPRLLEPEDIMVDMPDEQSIVTYVAQFLERFPELEPEDFVNPDKEAPIESTFVRIKESPSEQGSRVLLLSENGERAYTVNQETSYPPPDKVFVCDQLESPTGFCLDSAPSHKLSDSSTEFMHEIIDQVLQGSTGKTGSIAEPTPESSILSTRKDGRRSNSLPVKKTVHFEADLHKDASCSKDPFYSSDFRFEGSPKATKELSKQDGHVSLAEVSKEKKKSEQEARLVLEAASDKVPESTVDGLDAVPQDAQPSQDSSFCNGTVESPSSQGEKGPPPSSPGDHTLLANSTELKVQLLTVEPMDKEDYFECIPLKASKFNRDLVDFASTSQAFGEDPSSHEKTRGEEEGSENHAEKPGKRKSKSPRAETEAAESRLEPKKLEPPPKDPEQEDQGHALPPETPADKKPKVYEKAKRKSTRHHSEEEGEAESGFSAVCEEEIPSAPPSTSVSLETLRSHSEEGLDFKPSPPLSKISVIPHDLFYYPHYEVPLAAVLEAYAEGGEDLKSEDTDLEHPEDSYLQDSREEEADEDEEEAQSSQSSCSFSLPVDNSYPSVSEHVSHVDGSSEGPTSALGPGSPPSHEDHQPKETKENGPVESQQSQEPPNPELPTKPLEEKLTEASTSSKKKEKRKHMDHVESSLFIAPGTVRSSDDLEENSSEHKVPSRNSHSDSSIYIRRHTNRSLELDHFSYVQLRNAADLDDRRNRVLNRYNSQKLTELILQFYGIRADMKREYKHARLSMTGTNSSGEAVPLGNQSPPNDSLTQFVQQPDVIYFILFLWLLVYCLLLFPQLDVSRL

Tested on: hippocampal proteins
Test: DIA quantification proteomics, hippocampus of Mdga2+/- vs WT mice
Set-up: species or system mouse
Conditions: S3 Table, downregulated DEPs; for log2FC: Mdga2+/- vs WT mouse hippocampus (HET-HIP-VS-WT-HIP), SE, pvalue and adj_pvalue in own columns c3-c5; for Class: regulation class of the protein, HET-HIP-VS-WT-HIP
Method in brief: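 Hippocampi from 1.5–2-month-old male Mdga2+/− mice and WT littermates; 100 μg protein trypsin-digested, peptides high-pH fractionated. DDA-built spectral library, DIA by nano-LC–MS/MS with Spectronaut and mProphet QC. DEPs called at fold change >1.1 and p <0.05.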

Row | Molecule | log2FC | Class
1 | B1 | -1.516 | Down
2 | B2 | -1.5061 | Down
3 | B3 | -1.636 | Down
4 | B4 | -1.549 | Down
5 | B5 | -1.505 | Down
